Six molecules from US20130089555A1 (Genentech, published 2013) can be followed below.

Assay [1] concerns the target T1, human FcRH5 on stably transfected cells (BJAB, OPM2) (human, UniProt Q96RD9 16-977).
T1 construct: Cells were transfected with pRK.CMV.PD.nbe.FcRH5 (untagged); also called huFcRH5; BJAB.huFcRH5
T1 chain: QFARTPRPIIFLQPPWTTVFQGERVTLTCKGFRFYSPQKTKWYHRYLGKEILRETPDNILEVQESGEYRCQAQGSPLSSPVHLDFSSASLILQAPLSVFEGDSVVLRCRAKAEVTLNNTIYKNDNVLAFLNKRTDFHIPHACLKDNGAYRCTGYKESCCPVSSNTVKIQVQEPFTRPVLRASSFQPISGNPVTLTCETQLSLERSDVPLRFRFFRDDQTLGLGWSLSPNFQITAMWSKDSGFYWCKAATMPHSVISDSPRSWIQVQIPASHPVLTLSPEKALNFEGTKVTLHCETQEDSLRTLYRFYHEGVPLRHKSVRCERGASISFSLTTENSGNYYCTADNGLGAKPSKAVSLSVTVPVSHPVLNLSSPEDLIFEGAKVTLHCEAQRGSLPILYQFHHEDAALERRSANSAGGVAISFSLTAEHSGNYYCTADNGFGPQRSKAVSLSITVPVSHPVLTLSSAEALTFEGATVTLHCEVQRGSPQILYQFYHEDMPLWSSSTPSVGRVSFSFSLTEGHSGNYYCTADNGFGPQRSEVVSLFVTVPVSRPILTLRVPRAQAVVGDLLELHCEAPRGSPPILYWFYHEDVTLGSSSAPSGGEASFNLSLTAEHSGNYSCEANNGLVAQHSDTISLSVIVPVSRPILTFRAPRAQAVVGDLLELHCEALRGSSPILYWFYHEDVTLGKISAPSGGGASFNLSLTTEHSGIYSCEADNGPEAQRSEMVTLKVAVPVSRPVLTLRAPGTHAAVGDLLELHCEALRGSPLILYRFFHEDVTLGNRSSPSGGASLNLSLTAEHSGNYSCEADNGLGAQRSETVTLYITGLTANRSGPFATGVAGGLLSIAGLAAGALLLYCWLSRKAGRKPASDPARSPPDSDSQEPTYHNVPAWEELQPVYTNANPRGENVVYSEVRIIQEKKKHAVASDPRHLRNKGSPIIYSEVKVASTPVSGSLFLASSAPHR
Kind of assay: Scatchard, 125I-labelled antibody competed with the unlabelled same antibody on BJAB.huFcRH5 cells, 4 C; St. Error 0.046.

Assay [2] has as its target T2, cynomolgus FcRH5 on stably transfected SVT2 cells (cynomolgus monkey).
T2 construct: also called cyno FcRH5; cynoFcRH5
T2 chain: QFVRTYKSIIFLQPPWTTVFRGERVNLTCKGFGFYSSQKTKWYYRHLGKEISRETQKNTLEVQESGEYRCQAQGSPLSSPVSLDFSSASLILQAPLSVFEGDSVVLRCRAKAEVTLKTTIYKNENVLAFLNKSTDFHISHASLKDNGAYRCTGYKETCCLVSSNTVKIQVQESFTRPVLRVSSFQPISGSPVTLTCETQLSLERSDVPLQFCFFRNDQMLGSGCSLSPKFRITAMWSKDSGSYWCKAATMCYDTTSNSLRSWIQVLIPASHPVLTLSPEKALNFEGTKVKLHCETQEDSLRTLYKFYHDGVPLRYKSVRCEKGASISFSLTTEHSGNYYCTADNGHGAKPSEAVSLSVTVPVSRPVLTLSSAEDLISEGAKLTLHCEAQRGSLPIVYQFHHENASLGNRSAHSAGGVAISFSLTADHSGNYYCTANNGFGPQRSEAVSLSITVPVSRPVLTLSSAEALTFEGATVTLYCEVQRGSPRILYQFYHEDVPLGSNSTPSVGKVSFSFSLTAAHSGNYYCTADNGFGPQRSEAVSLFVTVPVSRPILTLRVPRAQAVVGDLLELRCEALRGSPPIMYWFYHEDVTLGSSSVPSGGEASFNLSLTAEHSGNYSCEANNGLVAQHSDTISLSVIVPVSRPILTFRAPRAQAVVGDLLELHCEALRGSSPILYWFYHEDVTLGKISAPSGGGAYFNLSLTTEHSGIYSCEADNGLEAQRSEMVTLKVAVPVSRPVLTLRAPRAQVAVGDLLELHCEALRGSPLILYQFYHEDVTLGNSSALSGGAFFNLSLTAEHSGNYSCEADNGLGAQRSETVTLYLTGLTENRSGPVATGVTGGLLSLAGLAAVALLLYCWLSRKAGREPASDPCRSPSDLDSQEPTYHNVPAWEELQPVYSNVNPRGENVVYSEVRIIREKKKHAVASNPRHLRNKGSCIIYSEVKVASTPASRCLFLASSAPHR
The assay is described as follows: Scatchard, 125I-labelled antibody competed with the unlabelled same antibody on SVT2.cyFcRH5 cells, 4 C; St. Error 0.530. The method, then:
(§1) To further determine binding of the FcRH5 murine antibodies and IgG clones, binding of iodinated IgG variants to OPM2 cells expressing human FcRH5 and SVT2 cells expressing cynomologous FcRH5, Scatchard analysis was performed.
(§2) For Scatchard analysis, 0.5 nM I¹²⁵ labeled murine or IgG clone anti-FcRH5 was competed against unlabeled murine or IgG clone anti-FcRH5, respectively, ranging from 50 to 0.02 nM (12 step 1:2 serial dilution) in the presence of a transfected OPM2 line stably expressing human-FcRH5 and a transfected SVT2 line stably expressing cynomologous-FcRH5. After a four hour incubation at 4° C., cells were washed and cell pellet counts were read by a gamma counter (1470 WIZARD Automatic Gamma Counter; Perkin Elmer, Walthem, Mass.). All points were done in triplicate and counted for 10 minutes. The average CPM was used for Kd calculation using the New Ligand (Genentech, South San Francisco, Calif.) program.

Assay [3] has as its target T1, human FcRH5 on stably transfected cells …. Kind of assay: Scatchard, 125I-labelled antibody competed with the unlabelled same antibody on BJAB.huFcRH5 cells, 4 C; St. Error 0.007.
Assay [4] has as its target T2, cynomolgus FcRH5 on stably transfected …. Kind of assay: Scatchard, 125I-labelled antibody competed with the unlabelled same antibody on SVT2.cyFcRH5 cells, 4 C; St. Error 0.027.
Assay [5] shares this target. Kind of assay: Scatchard, 125I-labelled antibody competed with the unlabelled same antibody on SVT2.cyFcRH5 cells, 4 C; St. Error 0.022. The method, then:
as §1, §2

Assay [6] has as its target T1, human FcRH5 on stably transfected cells …. Kind of assay: Scatchard, 125I-labelled antibody competed with the unlabelled same antibody on OPM2.huFcRH5 cells, 4 C; St. Error 0.050. Here is the method: as §1, §2
For assay [7], the target named is T2, cynomolgus FcRH5 on stably transfected …. Kind of assay: Scatchard, 125I-labelled antibody competed with the unlabelled same antibody on SVT2.cyFcRH5 cells, 4 C; St. Error 0.000. The method, then:
as §1, §2

Assay [8] addresses T1, human FcRH5 on stably transfected cells …. The assay is described as follows: Scatchard, 125I-labelled antibody competed with the unlabelled same antibody on OPM2.huFcRH5 cells, 4 C; St. Error 0.150. The method, then:
as §1, §2

The target of assay [9] is T2, cynomolgus FcRH5 on stably transfected …. Kind of assay: Scatchard, 125I-labelled antibody competed with the unlabelled same antibody on SVT2.cyFcRH5 cells, 4 C; St. Error 1.340. Here is the method: as §1, §2
Assay [10] deals with T3, human FcRH5 (PRO52387; FcRH5c/IRTA2c), antigen as used in Biacore and in hybridoma screening (human, UniProt Q96RD9 16-851, limits assumed).
T3 construct: The Biacore text only says that 'various FcRHs were injected'; also called Hu antigen; FcRH5/IRTA2
T3 chain: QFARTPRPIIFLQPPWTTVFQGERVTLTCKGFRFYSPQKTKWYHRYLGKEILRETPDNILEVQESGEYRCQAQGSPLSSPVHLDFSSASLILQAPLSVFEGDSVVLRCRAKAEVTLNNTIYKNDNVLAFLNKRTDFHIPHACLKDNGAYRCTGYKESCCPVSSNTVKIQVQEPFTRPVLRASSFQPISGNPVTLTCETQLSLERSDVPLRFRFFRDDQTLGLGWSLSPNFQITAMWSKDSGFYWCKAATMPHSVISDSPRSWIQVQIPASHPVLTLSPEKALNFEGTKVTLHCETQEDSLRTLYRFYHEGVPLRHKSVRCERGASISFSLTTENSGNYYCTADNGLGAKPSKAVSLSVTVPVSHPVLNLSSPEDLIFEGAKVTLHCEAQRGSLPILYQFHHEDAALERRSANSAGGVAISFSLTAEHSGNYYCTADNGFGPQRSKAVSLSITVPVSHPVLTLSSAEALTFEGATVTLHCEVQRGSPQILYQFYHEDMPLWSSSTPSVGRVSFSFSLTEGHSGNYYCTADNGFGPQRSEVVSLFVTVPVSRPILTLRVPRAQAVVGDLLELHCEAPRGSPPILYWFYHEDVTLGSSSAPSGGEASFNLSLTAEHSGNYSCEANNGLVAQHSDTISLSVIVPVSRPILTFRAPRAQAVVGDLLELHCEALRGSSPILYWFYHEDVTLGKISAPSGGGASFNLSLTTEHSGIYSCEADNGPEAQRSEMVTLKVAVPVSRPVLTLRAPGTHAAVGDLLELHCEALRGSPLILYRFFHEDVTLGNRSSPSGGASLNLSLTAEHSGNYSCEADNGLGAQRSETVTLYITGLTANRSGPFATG
The assay is described as follows: SPR (Biacore 2000), IgG captured on anti-murine IgG chip, FcRH injected, 1:1 Langmuir fit, 25 C.
Experimental: The FcRH-binding affinities of IgGs were calculated from association and dissociation rate constants measured using a Biacore 2000 surface plasmon resonance system (BIAcore, Inc.). […] Briefly, for each cycle of kinetic analysis, 5 ul of 100 nM IgG was captured on the chip, two-fold serial dilution of various FcRHs were injected at a flow rate of 20 ul/min for 150 sec. Antigen dissociation was monitored for 180 sec before regeneration. Equilibrium dissociation constants at 25° C. were calculated by fitting the data with a 1:1 Langmuir binding model. Running buffer was PBS with 0.05% Tween-20.

By Kd is commonly meant the free concentration of one partner at which half of the binding sites on the other are occupied at equilibrium, for simple one-to-one binding.

B1: murine anti-FcRH5 (10A8) monoclonal antibody (antibody, V domains shown)
VH: EVQLVESGGGLVKPGGSLKISCAASGFTFSSYAVSWVRQTPEKRLEWVATISSGGSLTFYLDSVRGRFTISRDNAKNTLYLQMSSLRSEDTAMYYCARPIPDYYALDYWGQGTSVTVSS
VL: DIVMTQSHKFMSTSVRDRVSITCKASQDVSTAVAWYQQKPGQSPKLLIYSASYRYTGVPDRFTGSGSGTDFTFTISSVQAEDLAVYYCQQHFSSPRTFGGGTKVEIKR
notes: Murine IgG from a hybridoma, detected with anti-mouse IgG1 in FACS; also called mu10A8; MA10A8
With B1, the Kd in [1] is 0.44 nM; in [2] it was 2.74 nM.

B2: murine anti-FcRH5-6H1 monoclonal antibody (antibody)
chain 1: DIVMTQSHKFMSTSVRDRVSITCKASQDVSTAVAWYQQKPGQSPKLLIYSASYRYTGVPDRFTGSGSGTDFTFTISSVQAEDLAVYYCQQHFSSPRTFGGGTKVEIKR
chain 2: EVQLVESGGGLVKPGGSLKISCAASGFTFSSYAVSWVRQTPEKRLEWVATISSGGSLTFYLDSVRGRFTISRDNAKNTLYLQMSSLRSEDTAMYYCARPIPDYYALDYWGQGTSVTVSS
With B2, the dissociation constant (Kd) in assay [3] came to 0.19 nM; in assay [4] it was 0.38 nM.

B3: chimeric anti-human FcRH5 antibody 10A8 (antibody)
heavy: not shown
light: DIVMTQSHKFMSTSVRDRVSITCKASQDVSTAVAWYQQKPGQSPKLLIYSASYRYTGVPDRFTGSGSGTDFTFTISSVQAEDLAVYYCQQHFSSPRTFGGGTKVEIKRTVAAPSVFIFPPSDEQLKSGTASVVCLLNNFYPREAKVQWKVDNALQSGNSQESVTEQDSKDSTYSLSSTLTLSKADYEKHKVYACEVTHQGLSSPVTKSFNRGEC
notes: Murine 10A8 variable domains on human IgG1 and kappa constant domains; also called ch10A8; chMAFcRH5 (10A8)
Molecule B3 registered a dissociation constant Kd in assay [5] of 0.98 nM.

B4: cysteine engineered chimeric anti-FcRH5 10A8, heavy chain A118C (antibody, human IgG1, kappa, name in EU numbering)
heavy: not shown
light: DIVMTQSHKFMSTSVRDRVSITCKASQDVSTAVAWYQQKPGQSPKLLIYSASYRYTGVPDRFTGSGSGTDFTFTISSVQAEDLAVYYCQQHFSSPRTFGGGTKVEIKRTVAAPSVFIFPPSDEQLKSGTASVVCLLNNFYPREAKVQWKVDNALQSGNSQESVTEQDSKDSTYSLSSTLTLSKADYEKHKVYACEVTHQGLSSPVTKSFNRGEC
notes: It is built here from the ch10A8 chains plus the stated A118C change; also called thio-ch10A8.HC; thio-ch10A8-HC(A118C)
Consider B4, for which the dissociation constant Kd in assay [6] worked out at 0.85 nM; in assay [7], 1.57 nM.

B5: humanized anti-FcRH5 antibody 10A8 version 1 (antibody, human IgG1, V domains shown)
VH: EVQLVESGGGLVQPGGSLRLSCAASGFTFSSYAVSWVRQAPGKGLEWVATISSGGSLTFYLDSVRGRFTISRDNSKNTLYLQMNSLRAEDTAVYYCARPIPDYYALDYWGQGTLVTVSS
VL: DIQMTQSPSSLSASVGDRVTITCKASQDVSTAVAWYQQKPGKAPKLLIYSASYRYTGVPSRFSGSGSGTDFTLTISSLQPEDFATYYCQQHFSSPRTFGQGTKVEIKR
notes: Full-length human IgG1 with a human kappa constant domain; also called hu10A8 v1; hu10A8
Regarding B5, the dissociation constant Kd in assay [8] turned out to be 1.44 nM; in [9] it was 3.04 nM.

B6: murine anti-FcRH5-7D11 monoclonal antibody (antibody, V domains shown)
VH: EVQLVESGGGLVQPGGSLKLSCAASGFTFSSYGMSWVRQTPDKRLELVATITRNGGTTYYLDSVKGRFTISRDNAKNTLYLQMSSLKSEDTAMYYCARGPIYYDYGYAMDYWGQGTTVTVSS
VL: DILLTQSPAILSVSPGERVSFSCRSSQSIGTNIHWYQQRTNGSPRLLIKFASESLSGIPSRFSGSGSGTDFTLSINSVESEDFADYYCQQSNSWPLTFGAGTKVEIK
notes: Murine IgG from a hybridoma; parent of ch7D11; also called 7D11.1.1; mu7D11
Turning to B6, the dissociation constant (Kd) in assay [10] came to 6 nM.
